# B1: intact invariant (Ii) chain (natural protein, mouse, UniProt P04441-2 1-215, looked up)
# chain: MDDQRDLISNHEQLPILGNRPREPERCSRGALYTGVSVLVALLLAGQATTAYFLYQQQGRLDKLTITSQNLQLESLRMKLPKSAKPVSQMRMATPLLMRPMSMDNMLLGPVKNVTKYGNMTQDHVMHLLTRSGPLEYPQLKGTFPENLKHLKNSMDGVNWKIFESWMKQWLLFEMSKNSLEEKKPTEAPPKEPLDMEDLSSGLGVTRQELGQVTL
# Assays:
# [1] = biological target: 10-kD NH2-terminal fragment of the invariant chain (Ii-p10) (mouse); assay: SEC + co-IP
# SEC + co-IP = biological target: the molecule itself; assay: SEC + co-IP
molecule,measurement,setting,value
10-kD NH2-terminal fragment of the invariant chain (Ii-p10) (domain or fragment),stoichiometry N,[1],3
B1,stoichiometry N,SEC + co-IP,3
